The target in series [1] is factor VIII / factor VIIIa (recombinant human coagulation factor VIII, thrombin-activated) (UniProt P00451).
The target of series [2] is T1, human factor IXa (human, UniProt P00740 47-191; P00740 227-461). Description: cell-based or functional assay.
The target in series [3] is T1, human factor IXa. Description: cell-based or functional assay. The source holds these as a separate data set.
Series [4] concerns the target T1, human factor IXa. The series can be described thus: SPR (BIACORE), antibody captured by anti-mouse Fc on CM5 chip, FIXa in flow, steady state analysis. The text has this:
Polyclonal anti-mouse Fc antibodies were immobilized on a CM5 sensor chip and saturated with the respective monoclonal antibody. As a reference, a non-specific mouse IgG was used.

The target of a further series is T2, murine FIX (murine, UniProt P16294 47-471).
T2 construct: also called murine factor IX
T2 sequence (P16294 47-471 limits assumed): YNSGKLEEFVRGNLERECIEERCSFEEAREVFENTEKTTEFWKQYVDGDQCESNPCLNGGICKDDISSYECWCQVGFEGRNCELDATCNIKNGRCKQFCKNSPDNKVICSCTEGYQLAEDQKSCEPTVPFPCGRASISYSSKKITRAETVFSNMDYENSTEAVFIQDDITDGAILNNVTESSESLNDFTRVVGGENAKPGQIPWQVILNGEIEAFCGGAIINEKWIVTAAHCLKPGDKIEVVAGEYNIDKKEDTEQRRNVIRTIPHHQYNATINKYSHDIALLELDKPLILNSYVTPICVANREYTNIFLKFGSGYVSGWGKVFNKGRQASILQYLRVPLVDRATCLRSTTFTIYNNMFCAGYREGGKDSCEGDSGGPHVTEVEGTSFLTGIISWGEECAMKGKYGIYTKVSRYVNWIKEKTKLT
Description: ELISA and Western blot. Background: An ELISA detects its analyte on a solid surface through an enzyme-linked reagent.

Another series concerns the target T3, bovine FIX (bovine, UniProt P00741 47-462).
T3 construct: also called bovine factor IX
Description: ELISA and Western blot.

T1 sequence (P00740 47-191 limits assumed, chain 1 of 2): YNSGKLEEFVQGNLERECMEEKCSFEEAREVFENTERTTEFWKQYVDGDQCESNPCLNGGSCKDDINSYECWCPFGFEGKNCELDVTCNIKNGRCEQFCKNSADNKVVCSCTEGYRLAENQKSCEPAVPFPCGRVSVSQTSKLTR
T1 sequence (P00740 227-461 limits assumed, chain 2 of 2): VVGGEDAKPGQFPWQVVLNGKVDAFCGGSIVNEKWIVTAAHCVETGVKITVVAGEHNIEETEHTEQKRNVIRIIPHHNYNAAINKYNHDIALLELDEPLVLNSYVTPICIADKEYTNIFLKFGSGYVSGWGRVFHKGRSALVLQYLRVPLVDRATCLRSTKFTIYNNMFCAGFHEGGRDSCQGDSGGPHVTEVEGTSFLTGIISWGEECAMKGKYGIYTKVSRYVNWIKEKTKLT
T3 sequence (P00741 47-462 limits assumed): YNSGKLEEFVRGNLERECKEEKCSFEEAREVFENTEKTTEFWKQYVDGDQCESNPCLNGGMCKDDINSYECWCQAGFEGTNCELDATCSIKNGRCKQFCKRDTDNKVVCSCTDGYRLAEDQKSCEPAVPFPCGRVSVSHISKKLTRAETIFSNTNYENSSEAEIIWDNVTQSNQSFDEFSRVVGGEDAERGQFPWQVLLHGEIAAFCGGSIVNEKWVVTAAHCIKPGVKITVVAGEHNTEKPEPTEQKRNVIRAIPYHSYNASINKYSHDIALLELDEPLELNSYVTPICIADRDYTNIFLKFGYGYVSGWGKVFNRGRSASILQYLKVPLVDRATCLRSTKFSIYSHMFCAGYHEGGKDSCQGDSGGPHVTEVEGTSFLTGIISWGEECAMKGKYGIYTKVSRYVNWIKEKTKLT
factor VIII / factor VIIIa (recombinant human coagulation factor VIII, thrombin-activated), sequence (P00451 20-2351): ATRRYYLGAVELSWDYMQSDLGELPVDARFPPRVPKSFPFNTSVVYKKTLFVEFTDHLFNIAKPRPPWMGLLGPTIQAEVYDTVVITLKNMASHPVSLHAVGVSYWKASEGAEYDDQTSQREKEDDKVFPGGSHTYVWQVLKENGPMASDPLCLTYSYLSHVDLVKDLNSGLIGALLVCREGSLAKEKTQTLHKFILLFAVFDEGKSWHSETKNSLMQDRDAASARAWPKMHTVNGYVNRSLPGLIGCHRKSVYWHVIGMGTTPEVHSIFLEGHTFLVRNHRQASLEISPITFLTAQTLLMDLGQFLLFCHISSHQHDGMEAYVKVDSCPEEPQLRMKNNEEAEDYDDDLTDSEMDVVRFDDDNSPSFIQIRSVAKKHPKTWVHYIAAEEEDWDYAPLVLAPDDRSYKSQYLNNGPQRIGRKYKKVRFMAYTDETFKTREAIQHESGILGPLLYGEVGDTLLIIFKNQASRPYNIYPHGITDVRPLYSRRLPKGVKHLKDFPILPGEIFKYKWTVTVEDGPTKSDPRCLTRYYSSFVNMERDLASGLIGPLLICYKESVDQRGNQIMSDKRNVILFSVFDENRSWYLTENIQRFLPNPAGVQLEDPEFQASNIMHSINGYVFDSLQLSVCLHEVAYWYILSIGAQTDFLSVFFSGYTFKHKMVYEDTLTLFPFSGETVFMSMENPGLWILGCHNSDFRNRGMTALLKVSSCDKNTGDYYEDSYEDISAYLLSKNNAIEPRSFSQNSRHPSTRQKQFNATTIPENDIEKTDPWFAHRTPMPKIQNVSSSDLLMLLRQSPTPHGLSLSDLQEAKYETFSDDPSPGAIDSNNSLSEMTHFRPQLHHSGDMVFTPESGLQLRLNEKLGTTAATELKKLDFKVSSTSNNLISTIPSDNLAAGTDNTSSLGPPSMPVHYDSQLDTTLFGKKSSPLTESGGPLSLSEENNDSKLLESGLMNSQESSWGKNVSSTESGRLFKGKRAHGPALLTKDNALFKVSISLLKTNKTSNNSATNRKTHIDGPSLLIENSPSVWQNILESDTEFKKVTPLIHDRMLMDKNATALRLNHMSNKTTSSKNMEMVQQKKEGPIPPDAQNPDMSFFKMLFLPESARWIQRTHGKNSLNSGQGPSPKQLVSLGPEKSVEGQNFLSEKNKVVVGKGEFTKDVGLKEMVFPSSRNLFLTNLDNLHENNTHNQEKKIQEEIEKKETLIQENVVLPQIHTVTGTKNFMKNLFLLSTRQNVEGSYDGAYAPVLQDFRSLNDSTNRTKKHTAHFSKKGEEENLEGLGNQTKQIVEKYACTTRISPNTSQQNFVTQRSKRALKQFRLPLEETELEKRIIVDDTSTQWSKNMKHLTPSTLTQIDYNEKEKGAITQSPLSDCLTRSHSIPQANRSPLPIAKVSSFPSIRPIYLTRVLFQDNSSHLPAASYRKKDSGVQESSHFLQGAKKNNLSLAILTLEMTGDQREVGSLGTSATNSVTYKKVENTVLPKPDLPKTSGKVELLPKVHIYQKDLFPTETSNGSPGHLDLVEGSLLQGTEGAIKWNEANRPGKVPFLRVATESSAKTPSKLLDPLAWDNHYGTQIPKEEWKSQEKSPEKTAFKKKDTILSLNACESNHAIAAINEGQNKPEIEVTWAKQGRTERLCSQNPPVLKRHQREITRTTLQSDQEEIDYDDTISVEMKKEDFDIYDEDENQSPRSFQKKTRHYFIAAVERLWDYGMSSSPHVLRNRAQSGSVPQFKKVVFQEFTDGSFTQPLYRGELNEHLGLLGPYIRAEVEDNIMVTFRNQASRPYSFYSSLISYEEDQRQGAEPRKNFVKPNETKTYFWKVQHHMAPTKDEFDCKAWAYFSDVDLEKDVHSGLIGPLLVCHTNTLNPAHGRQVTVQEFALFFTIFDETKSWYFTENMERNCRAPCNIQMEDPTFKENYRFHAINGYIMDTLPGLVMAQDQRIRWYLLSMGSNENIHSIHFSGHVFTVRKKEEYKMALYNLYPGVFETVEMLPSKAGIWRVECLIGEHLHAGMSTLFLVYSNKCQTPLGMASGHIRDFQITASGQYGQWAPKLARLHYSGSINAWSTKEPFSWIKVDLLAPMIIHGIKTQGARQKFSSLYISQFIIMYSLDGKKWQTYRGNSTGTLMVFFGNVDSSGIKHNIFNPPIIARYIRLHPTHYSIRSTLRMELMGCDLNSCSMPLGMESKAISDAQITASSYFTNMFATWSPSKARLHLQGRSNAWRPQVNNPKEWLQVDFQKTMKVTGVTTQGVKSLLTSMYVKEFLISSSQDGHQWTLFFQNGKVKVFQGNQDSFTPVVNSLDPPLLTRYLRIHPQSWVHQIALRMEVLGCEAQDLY

As for human factor IXa, in series [1], the “decrease of Km of FIXa” value is on record as “approximately 2.5-fold”.

B1: antibody 224F3 (antibody, V domains shown)
VH: QVQMQQSGAELVKPGASVKLSCKASGYTFTSQDINWVRQRPEQGLEWIGWIFPGDGSTKYNEKLKGKATLTTDKSSSTAFMQLSRLTSEDSAVYFCARSAYYRYDGSYYYAMDYWGQGTSVTVSS
VL: QIVLTQSPAIMSASLGEEITLTCSASSSVSYMLWYQQKSGTSPKLLIYTTSNLASGVPSRFSGTGSGTFYSLTISSVEAEDAADYYCHQWSSYPRTFGGGTKLEIKR
The term KM denotes the substrate concentration at which the rate is half of its maximum. The term kcat denotes the maximal rate divided by the concentration of active sites. For orientation: kcat/KM means the second-order rate constant that governs catalysis at low substrate concentration. A word on the Kd: it is the constant that tells how readily two partners part at equilibrium. Read a low Kd as tighter binding. On to B1, for which, in the series with human factor IXa [2], the KM stood at 0.048 µM, the kcat is 0.000883 s⁻¹ and the kcat/KM turned out to be 18300 M⁻¹ s⁻¹. Moreover, in the series with human factor IXa [3], the “enhancement of the rate of FXa formation” value was 10 fold and the “increase of kcat of FX activation by FIXa” value was around 10 fold. In addition, in the series with human factor IXa [4], the Kd worked out at 0.477 nM. Also, the binding result with murine FIX is on record as “no binding”. Also, the binding result with bovine FIX is “binds”.

(Values after US20050058640A1 (BAXTER INTERNATIONAL, published 2005).)
